Measurements as given in patent US20250019435A1 (ALBERT EINSTEIN COLLEGE OF MEDICINE, published 2025).

B1: KIR2DL5B*003 allele expressed on 3T3 cells (receptor)
chain: HEGGQDKPLLSAWPSAVVPRGGHVTLLCRSRLGFTIFSLYKEDGVPVPELYNKIFWKSILMGPVTPAHAGTYRCRGSHPRSPIEWSAPSNPLVIMVTGLFGKPSLSAQPGPTVRTGENVTLSCSSRSSFDMYHLSREGRAHEPRLPAVPSVNGTFQADFPLGPATHGGTYTCFGSLHDSPYEWSDPSDPLLVSVTGNSSSSSSSPTEPSSKTGIRRHLHILIGTSVAIILFIILFFFLLHCCCSNKKNAAVMDQEPAGDRTVNREDSDDQDPQEVTYAQLDHCVFTQTKITSPSQRPKTPPTDTTMYMELPNAKPRSLSPAHKHHSQALRGSSRETTALSQNRVASSHVPAAGI
B2: CD112-Ig fusion protein (Fc fusion, UniProt Q92692 32-360, looked up)
chain: QDVRVQVLPEVRGQLGGTVELPCHLLPPVPGLYISLVTWQRPDAPANHQNVAAFHPKMGPSFPSPKPGSERLSFVSAKQSTGQDTEAELQDATLALHGLTVEDEGNYTCEFATFPKGSVRGMTWLRVIAKPKNQAEAQKVTFSQDPTTVALCISKEGRPPARISWLSSLDWEAKETQVSGTLAGTVTVTSRFTLVPSGRADGVTVTCKVEHESFEEPALIPVTLSVRYPPEVSISGYDDNWYLGRTDATLSCDVRSNPEPTGYDWSTTSGTFPTSAVAQGSQLVIHAVDSLFNTTFVCTVTNAVGMGRAEQVIFVRETPNTAGAGATGG
notes: Bought (R&D Systems); also called nectin-2; not shown: Ig part, detected with anti-human IgG Fc
B3: PVR-Ig fusion protein (Fc fusion, UniProt P15151 27-343, looked up)
chain: GDVVVQAPTQVPGFLGDSVTLPCYLQVPNMEVTHVSQLTWARHGESGSMAVFHQTQGPSYSESKRLEFVAARLGAELRNASLRMFGLRVEDEGNYTCLFVTFPQGSRSVDIWLRVLAKPQNTAEVQKVQLTGEPVPMARCVSTGGRPPAQITWHSDLGGMPNTSQVPGFLSGTVTVTSLWILVPSSQVDGKNVTCKVEHESFEKPQLLTVNLTVYYPPEVSISGYDNNWYLGQNEATLTCDARSNPEPTGYNWSTTMGPLPPFAVAQGAQLLIRPVDKPINTTLICNVTNALGARQAELTVQVKEGPPSEHSGISRN
notes: Bought (R&D Systems); also called PVR-Ig protein; not shown: Ig part, detected with anti-human IgG Fc

Key:
PVR-Ig fusion protein = biological target: B3; test: flow cytometry, PVR-Ig on 3T3 cells expressing KIR2DL5 alleles
Method: (§1) FIG. 10A-E: Allelic polymorphism affected PVR binding of KIR2DL5. (A) Flow cytometric analysis of PVR-Ig or CD112-Ig (open) or control hIg (shaded) binding to KIR2DL5/3T3. (B) Flow cytometric analysis of PVR-Ig binding to KIR2DL5/3T3 in the presence of increasing concentrations of F8B30. (C) KIR2DL5 bound to different sites of PVR from other receptors. PVR-Ig protein was preincubated with indicated His-tagged protein and then stained KIR2DL5/3T3 cells. […] (D) Flow cytometric analysis of PVR-Ig (open) or control hIg (shaded) binding on 3T3 cells expressing WT, DO-deleted, or D2-deleted KIR2DL5. Parental 3T3 cells were used as a negative control. (E) Flow cytometric analysis of PVR-Ig or control hIg (shaded) binding on 3T3 cells expressing different KIR2DL5 alleles. In A-E, data are representative of 2 independent experiments.
(§2) Fusion protein cell binding assays. PVR-Ig, CD112-Ig, or hIgG (R&D Systems) was incubated with corresponding 3T3 cells on ice for 45 minutes, followed by incubation with APC- or PE-conjugated anti-human IgG Fc antibody (1:100; clone HP6017, BioLegend) on ice for 30 minutes. Cells were then acquired on an LSR II flow cytometer (BD Biosciences). In the anti-KIR2DL5 mAb blocking assay, KIR2DL5/3T3 cells were preincubated with a serial concentration of anti-KIR2DL5 mAb F8B30 or mIgG1 on ice for 30 minutes. […]

[1] = biological target: T1, KIR2DL5 wild type (KIR2DL5A*001) expressed on cells (human, UniProt Q8N109 22-375); test: flow cytometry, fusion protein on KIR2DL5/3T3, anti-human IgG Fc detection
T1 construct: UniProtKB Q8N109 and NP_065396.1 are printed for this entry; In the SHP-1/SHP-2 co-immunoprecipitation the cells were treated with pervanadate and the receptor was tyrosine-phosphorylated; also called KIR2DL5/3T3; WT KIR2DL5
Method: PVR-Ig protein was preincubated with indicated His-tagged protein and then stained KIR2DL5/3T3 cells. […] (D) Flow cytometric analysis of PVR-Ig (open) or control hIg (shaded) binding on 3T3 cells expressing WT, DO-deleted, or D2-deleted KIR2DL5. Parental 3T3 cells were used as a negative control. (E) Flow cytometric analysis of PVR-Ig or control hIg (shaded) binding on 3T3 cells expressing different KIR2DL5 alleles. In A-E, data are representative of 2 independent experiments.
(§3) Fusion protein cell binding assays. PVR-Ig, CD112-Ig, or hIgG (R&D Systems) was incubated with corresponding 3T3 cells on ice for 45 minutes, followed by incubation with APC- or PE-conjugated anti-human IgG Fc antibody (1:100; clone HP6017, BioLegend) on ice for 30 minutes. Cells were then acquired on an LSR II flow cytometer (BD Biosciences). In the anti-KIR2DL5 mAb blocking assay, KIR2DL5/3T3 cells were preincubated with a serial concentration of anti-KIR2DL5 mAb F8B30 or mIgG1 on ice for 30 minutes. After washing, the cells were then incubated with 20 μg/mL PVR-Ig or hIgG on ice for 45 minutes, followed by incubation with APC anti-human IgG Fc antibody on ice for 30 minutes. […]

[2] = biological target: T2, KIR2DL4 expressed on 3T3 cells (human, UniProt Q99706 22-377); test: flow cytometry, PVR-Ig titrated on KIR2DL4/3T3
T2 construct: whole, on cells; also called KIR2DL4/3T3
Method: Specifically, a cell-based binding assay was performed by incubating PVR-Ig fusion protein with KIR2DL5- or KIR2DL4-expressing 3T3 cells. Conversely, KIR2DL5 was selectively bound by PVR, but not by CD112 (also known as nectin-2), another ligand for TIGIT and DNAM-1 in the nectin/nectin-like family (FIG. 10A). Furthermore, anti-KIR2DL5 mAb F8B30 blocked KIR2DL5-PVR interaction (EC₅₀=0.095 μM) (FIG. 10B). The specificity of KIR2DL5 binding to PVR was also evidenced by an intercellular interaction assay, in which 3T3 cells expressing PVR interacted with 3T3 cells expressing KIR2DL5, but not with cells expressing KIR3DL3 (FIG. 18B), a newly identified inhibitory receptor of HHLA2 (Zang, 2022; Wei 2021; Bhatt 2021).
as §3

[3] = biological target: T3, KIR2DL5A*005 allele expressed on 3T3 cells (human); test: flow cytometry, PVR-Ig on 3T3 cells expressing KIR2DL5 alleles
T3 construct: also called 2D5A*005
Method: as §1, §2

T2 sequence (Q99706 22-377): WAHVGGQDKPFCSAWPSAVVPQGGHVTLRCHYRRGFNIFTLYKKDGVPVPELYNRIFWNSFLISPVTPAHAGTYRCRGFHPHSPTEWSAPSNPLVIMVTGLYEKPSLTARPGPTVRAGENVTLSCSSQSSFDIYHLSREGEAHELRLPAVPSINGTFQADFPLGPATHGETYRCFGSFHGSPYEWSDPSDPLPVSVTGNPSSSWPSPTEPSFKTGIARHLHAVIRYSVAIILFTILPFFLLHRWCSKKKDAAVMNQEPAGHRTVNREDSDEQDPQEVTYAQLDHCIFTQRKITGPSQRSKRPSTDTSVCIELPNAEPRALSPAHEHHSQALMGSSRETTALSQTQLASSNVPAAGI

Binder: B1
binding result (PVR-Ig fusion protein): no binding

Binder: B2
binding result [1]: no binding

Binder: B3
binding result [2]: no binding (tested: 1.28 µM) | binding result [3]: no binding
